Measured values as given in US20230391828A1, “REGULATORS OF CELL DIVISION” (TECHNISCHE UNIVERSITÄT DRESDEN, priority 2020, published 2023).
Bridge positions count the residues as written; N and C are the ends. Square brackets hold non-standard residues; d marks the D form. 2Nal = N[C@@H](Cc1ccc2ccccc2c1)C(=O)O; R8 = C=CCCCCCC[C@@](C)(N)C(=O)O; S5 = C=CCCC[C@](C)(N)C(=O)O

Target: T1, APC/C (Homo sapiens, UniProt Q9NYG5)
T1 construct: made in house; host or cells: SF9 insect cells (baculovirus)
Assay: In vitro APC/C ubiquitination assay driven by the E2 enzyme UBE2C, fluorophore-labelled securin substrate
Format: biochemical
Settings: 100 μM, UBE2C, reaction time 45 min; for inhibition of APC/C activity in vitro compared with TAME: 3 independent assays
Description: Proteins were separated by SDS-PAGE electrophoresis using precast Bolt 4-12% Bis-Tris Plus protein gels (Thermo Fisher Scientific) and Criterion XT Bis-Tris Midi Protein Gels (Bio-Rad). In different experiments, various conditions were used: in vitro APC/C ubiquitination assays—165 V, 40 min, SDS-MES running buffer (50 mM MES, 50 mM Tris base, 0.1% SDS, 1 mM EDTA, pH 7.3; Thermo Fisher Scientific); in vitro APC/C ubiquitination assays determining KM—165V, 1 h, SDS-MOPS running buffer (50 mM MOPS, 50 mM Tris base, 0.1% SDS, 1 mM EDTA, pH 7.7; Thermo Fisher Scientific); pull-down binding assay—165 V, 35 min, SDS-MES running buffer.
APC/C-dependent ubiquitination reactions were performed at 30° C. in 30 mM HEPES pH 7.4, 175 mM NaCl, 8 mM MgCl2, 0.05% Tween-20, 1 mM DTT and 5% glycerol and contained 20 nM recombinant APC/C (note, for testing the first generation of inhibitors, APC/C and Cdc20 immunoprecipitated from mitotic HeLa K cells was used), 340 nM Cdc20, 46 nM GST-UBA1, 340 nM UBE2C (alternatively 400 nM UBE2D1, 280 nM UBE2S), 21 μM His6-ubiquitin or if it is indicated 21 μM methylated-ubiquitin (BostonBiochem), 2.6 mM ATP, 10 mM phosphocreatine and 11 μM creatine kinase. As substrates, 35 nM fluorophore-labeled ubiquitin-cyclin B and 50 nM fluorophore-labeled securin were standardly used (fluorophore IRDye 800CW (LI-COR) was used for labelling). In case of KM and kcat determination, 50, 100, 250, 500, 750, 1000, 1250, 2500 and 5000 nM fluorophore-labelled securin was used. The reaction was done in the volume of 15 μl, it was quenched after the indicated time with LDS sample buffer (Thermo Fisher Scientific) supplemented with 100 mM DTT and subjected to SDS-PAGE. Detection of fluorescently labelled substrates was done by quantitative near-infrared scanning system Odyssey.

Substance: cyclo(1,14)-[T F L W K W E W T K R K p P] (cyclo(TFLWKWEWTKRK[dP]P); SMILES CC(C)C[C@@H]1NC(=O)[C@H](Cc2ccccc2)NC(=O)[C@H]([C@@H](C)O)NC(=O)[C@@H]2CCCN2C(=O)[C@H]2CCCN2C(=O)[C@H](CCCCN)NC(=O)[C@H](CCCNC(=N)N)NC(=O)[C@H](CCCCN)NC(=O)[C@H]([C@@H](C)O)NC(=O)[C@H](Cc2c[nH]c3ccccc23)NC(=O)[C@H](CCC(=O)O)NC(=O)[C@H](Cc2c[nH]c3ccccc23)NC(=O)[C@H](CCCCN)NC(=O)[C@H](Cc2c[nH]c3ccccc23)NC1=O) [G2-8]
- inhibition of APC/C activity in vitro (ubiquitinated securin): inhibit APC/C in vitro the most effectively compared to other molecules of item (f)

Substance: cyclo(1,14)-[L 2-NaI L W K l E W E K R K p P] (cyclo(L[2Nal]LWK[dL]EWEKRK[dP]P); SMILES CC(C)C[C@@H]1NC(=O)[C@H](Cc2ccc3ccccc3c2)NC(=O)[C@H](CC(C)C)NC(=O)[C@@H]2CCCN2C(=O)[C@H]2CCCN2C(=O)[C@H](CCCCN)NC(=O)[C@H](CCCNC(=N)N)NC(=O)[C@H](CCCCN)NC(=O)[C@H](CCC(=O)O)NC(=O)[C@H](Cc2c[nH]c3ccccc23)NC(=O)[C@H](CCC(=O)O)NC(=O)[C@@H](CC(C)C)NC(=O)[C@H](CCCCN)NC(=O)[C@H](Cc2c[nH]c3ccccc23)NC1=O) [G2-4]
- inhibition of APC/C activity in vitro (ubiquitinated securin): the most potent

Substance: Ac-cyclo(4,11)-EWWZKLEIQRXRRA-NH2 (Ac-EWW[R8]KLEIQR[S5]RRA-NH2; staple 4-11; SMILES CC[C@H](C)[C@@H]1NC(=O)[C@H](CCC(=O)O)NC(=O)[C@H](CC(C)C)NC(=O)[C@H](CCCCN)NC(=O)[C@](C)(NC(=O)[C@H](Cc2c[nH]c3ccccc23)NC(=O)[C@H](Cc2c[nH]c3ccccc23)NC(=O)[C@H](CCC(=O)O)NC(C)=O)CCCCCCC=CCCC[C@@](C)(C(=O)N[C@@H](CCCNC(=N)N)C(=O)N[C@@H](CCCNC(=N)N)C(=O)N[C@@H](C)C(N)=O)NC(=O)[C@H](CCCNC(=N)N)NC(=O)[C@H](CCC(N)=O)NC1=O) [G3-4]
- inhibition of APC/C activity in vitro compared with TAME: inhibit APC/C in vitro more efficiently than TAME

Substance: Ac-cyclo(3,13)-THCDDPETWRWNCQRV-NH2 (Ac-THCDDPETWRWNCQRV-NH2; disulfide 3-13; SMILES CC(=O)N[C@H](C(=O)N[C@@H](Cc1c[nH]cn1)C(=O)N[C@H]1CSSC[C@@H](C(=O)N[C@@H](CCC(N)=O)C(=O)N[C@@H](CCCNC(=N)N)C(=O)N[C@H](C(N)=O)C(C)C)NC(=O)[C@H](CC(N)=O)NC(=O)[C@H](Cc2c[nH]c3ccccc23)NC(=O)[C@H](CCCNC(=N)N)NC(=O)[C@H](Cc2c[nH]c3ccccc23)NC(=O)[C@H]([C@@H](C)O)NC(=O)[C@H](CCC(=O)O)NC(=O)[C@@H]2CCCN2C(=O)[C@H](CC(=O)O)NC(=O)[C@H](CC(=O)O)NC1=O)[C@@H](C)O) [G1-7]
- inhibition of APC/C activity in vitro (ubiquitinated securin): the most potent

Substance: Ac-cyclo(5,9)-RWPQXIKDXQVRWW-NH2 (Ac-RWPQ[S5]IKD[S5]QVRWW-NH2; staple 5-9; SMILES CC[C@H](C)[C@@H]1NC(=O)[C@@](C)(NC(=O)[C@H](CCC(N)=O)NC(=O)[C@@H]2CCCN2C(=O)[C@H](Cc2c[nH]c3ccccc23)NC(=O)[C@H](CCCNC(=N)N)NC(C)=O)CCCC=CCCC[C@@](C)(C(=O)N[C@@H](CCC(N)=O)C(=O)N[C@H](C(=O)N[C@@H](CCCNC(=N)N)C(=O)N[C@@H](Cc2c[nH]c3ccccc23)C(=O)N[C@@H](Cc2c[nH]c3ccccc23)C(N)=O)C(C)C)NC(=O)[C@H](CC(=O)O)NC(=O)[C@H](CCCCN)NC1=O) [G3-3]
- inhibition of APC/C activity in vitro compared with TAME: inhibit APC/C in vitro more efficiently than TAME
